Measurements: article doi:10.1101/2021.12.24.474084 (bioRxiv, 2021)

Biological target: SARS-CoV-2 wild-type receptor binding domain (RBD) (ACROBiosystems, Cat No. SPD-C52H3) (SARS-CoV-2 wild-type (MN908947), UniProt P0DTC2)
Experiment: BLI

Binder	binding result
XGv347 monoclonal antibody (antibody, V domains shown) VH: QMQLVQSGPEVKKPGTSVKVSCKASGFTFTDVSSLQWVRQARGQRLEWIGWTVVGTGNTNYAPRFQERVTITTDKSTSTAYMELSSLRSEDTAVYYCAAPFCSETSCSDGFDLWGQGTKVTVS VL: EIVLTQSPGTLSLSPGDRATLSCRASQSVRISYLAWYQQKPGQAPRLLISGSSSRATGIPDRFSASGSGTDFTLTISRLEPEDFAVYYCQQYANSPWTFGQGTKVEV	binds
XGv289 monoclonal antibody (antibody, V domains shown) VH: QVQLVQSGAEVKKPGASLKVSCRASGYTFTSHFIHWVRQAPGQGLEWMGIINPSGGASYAQNFRDRVTMTTDPSTSTVYMELGSLRSEDTAVYYCARAEGSSWLGWFDPWGQGTLVTVSS VL: SVLTQPPSASGTPGQRVTIPCSGSSSNIGNNYVYWYQQLPGTAPKLLVYGNNQRPSGVPDRFSVSKSGTSASLAISGLRSEDEADYYCAAWDDGLSGSGWVFGGGTKLTVL	binds
XGv282 monoclonal antibody (antibody, V domains shown) VH: VQLVQSGAEVKKPGSSVKVSCKASGDTFSSYTFSWVRQAPGQGLEWMGRSIPIVGKAIYAQEFQGRVTISADRSTTTVYMELSSLRSDDTAVYYCARDQSGFDFFYYDHWGQGTLVAV VL: QSVLTQPPSASGTPGQRVTISCSGSGSNIGSNTINWYQQLPGTAPKVLIYRNNERPSGVPDRFSGSKSGTSASLTISGLQSEDEAYYHCAAWDDSLNGPVFGGGTKLTVL	binds
XGv265 monoclonal antibody (antibody, V domains shown) VH: QITLKESGPTLVKPTQTLTLTCNFSGFSLNTYGVGVGWIRQPPGKALEWLALIYWDGDERYGPFFKNKVTIAKDTSKNQVVLTMTNMDPVDTATYYCARHLIPTIFDYWGQGTLVTVSS VL: ALTQPASVSGSPGQSITISCTGTSSDVGGSNYVSWYQHHPDRAPKLLIYEVTNRPSGVSNRFSGSKSANTASLTISGLQAEDEADYYCSSYTTTSTHILFGGGTKLTV	binds
